Laboratory results reported in PMC2850201 (Archives of biochemistry and biophysics, 2008).
Entries after “also recorded” stand apart in the source; their conditions may differ. Like-named read-outs stand apart in the source and are kept apart here. Peptide text beside a SMILES is read from it.

What was measured:
Phosphono-CheY [1] = biological target: Phosphono-CheY (Escherichia coli, UniProt P0AE67, D57C); assay type: binding, E. coli; details: phosphono-CheY versus CheY~P
T87I Phosphono-CheY = T87I Phosphono-CheY (Escherichia coli, UniProt P0AE67, D57C/T87I); assay type: binding, E. coli; details: ~2 μM protein, 100 mM HEPES, 10 mM MgCl2, 25 °C; no change in fluorescence intensity up to 500 μM peptide; uncertainty in intensity about 4 % due to noise
Sequence of T87I Phosphono-CheY (P0AE67 2-129 D57C/T87I limits assumed): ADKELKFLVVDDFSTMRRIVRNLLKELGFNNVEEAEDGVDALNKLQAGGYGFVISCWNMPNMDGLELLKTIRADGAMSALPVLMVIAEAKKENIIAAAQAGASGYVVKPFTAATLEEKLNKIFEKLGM

[2] = biological target: T87I/Y106W Phosphono-CheY (Escherichia coli, UniProt P0AE67, D57C/T87I/Y106W); assay type: binding, E. coli; details: ~2 μM protein, 100 mM HEPES, 10 mM MgCl2, 25 °C; no change in fluorescence intensity up to 500 μM peptide; uncertainty in intensity about 4 % due to noise
Sequence of T87I/Y106W Phosphono-CheY (P0AE67 2-129 D57C/T87I/Y106W limits assumed): as the sequence (P0AE67 2-129 D57C/T87I limits assumed) above, with Y105W counted along it

[3] = biological target: FliM peptide (Escherichia coli) (UniProt P06974); details: cited from earlier work
Sequence of FliM peptide (Escherichia coli) (P06974 whole entry): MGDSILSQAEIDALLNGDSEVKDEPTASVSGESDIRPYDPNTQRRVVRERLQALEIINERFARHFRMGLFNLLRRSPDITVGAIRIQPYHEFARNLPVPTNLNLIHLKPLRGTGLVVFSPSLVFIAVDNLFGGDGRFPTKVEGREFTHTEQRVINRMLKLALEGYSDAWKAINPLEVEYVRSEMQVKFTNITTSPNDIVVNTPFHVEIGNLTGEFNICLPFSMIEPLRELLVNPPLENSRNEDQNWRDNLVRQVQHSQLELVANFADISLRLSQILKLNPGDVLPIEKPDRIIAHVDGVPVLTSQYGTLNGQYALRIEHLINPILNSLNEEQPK

[4] = biological target: CheZ peptide (Escherichia coli) (UniProt P0A9H9); assay: fluorescence; details: cited from earlier work
Sequence of CheZ peptide (Escherichia coli) (P0A9H9 whole entry): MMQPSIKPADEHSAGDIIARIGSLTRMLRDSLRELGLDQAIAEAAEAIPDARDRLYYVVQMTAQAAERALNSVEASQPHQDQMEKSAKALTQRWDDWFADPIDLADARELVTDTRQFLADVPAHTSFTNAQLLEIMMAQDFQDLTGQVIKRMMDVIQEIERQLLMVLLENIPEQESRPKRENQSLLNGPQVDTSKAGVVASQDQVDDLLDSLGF

[5] = biological target: FliM peptide (Escherichia coli) (UniProt P06974); details: cited from earlier work; remark: listed apart in the source
Phosphono-CheY [6] = biological target: T1, Phosphono-CheY (Escherichia coli, UniProt P0AE67 1-129, D57C, phosphonomethyl group on Cys57 (Pcy57)); assay: ITC
T1 sequence (looked up): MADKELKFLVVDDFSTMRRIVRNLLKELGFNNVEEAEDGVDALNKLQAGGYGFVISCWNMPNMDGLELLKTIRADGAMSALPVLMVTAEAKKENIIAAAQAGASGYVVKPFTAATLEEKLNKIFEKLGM

Phosphono-CheY [7] = biological target: T1, Phosphono-CheY; assay: ITC; remark: listed apart in the source
Phosphono-CheY [8] = biological target: T1, Phosphono-CheY; assay: other fluorescence titration
CheY~P = details: cited from earlier work
CheZ = details: cited from earlier work
flagellar rotation = details: cited from earlier work

## CC[C@H](C)[C@H](NC(=O)[C@H](CCC(=O)O)NC(=O)[C@H](C)NC(=O)[C@H](CCC(N)=O)NC(=O)[C@H](CO)NC(=O)[C@H](CC(C)C)NC(=O)[C@@H](NC(=O)[C@H](CO)NC(=O)[C@H](CC(=O)O)NC(=O)CNC(=O)[C@@H](N)CCSC)[C@@H](C)CC)C(=O)N[C@@H](CC(=O)O)C(=O)N[C@@H](C)C(=O)N[C@@H](CC(C)C)C(=O)N[C@@H](CC(C)C)C(=O)N[C@@H](CC(N)=O)C(=O)O [FliM peptide] (H-MGDSILSQAEIDALLN-OH)
Phosphono-CheY [1]
  affinity / Kd for phosphono-CheY compared with CheY~P: CheY~P binds the same FliM peptide with slightly higher affinity; also recorded: almost identical
T87I Phosphono-CheY
  Kd (fluorescence): Not detectable ^b
[2]
  Kd (fluorescence): Not detectable ^b

## CheY~P (from UniProt P0AE67)
[3]
  Kd: 27 µM
[4]
  Kd: 26 µM

## CheY (from UniProt P0AE67)
[5]
  Kd: 680 µM
[4]
  Kd: 440 µM

B1: FliM peptide (peptide)
peptide: MGDSILSQAEIDALLN
Phosphono-CheY [6]
  dH: -2.4 kcal/mol
Phosphono-CheY [7]
  Kd: 21 µM
Phosphono-CheY [8]
  Kd: 38 ± 1 µM

B2: CheZ peptide (peptide)
peptide: AGVVASQDQVDDLLDSLGF
Phosphono-CheY [6]
  dH: -4.8 kcal/mol

B3: CheY~P: phosphorylated form of CheY (protein, UniProt P0AE67 2-129, looked up)
Chemotaxis protein CheY: ADKELKFLVVDDFSTMRRIVRNLLKELGFNNVEEAEDGVDALNKLQAGGYGFVISDWNMPNMDGLELLKTIRADGAMSALPVLMVTAEAKKENIIAAAQAGASGYVVKPFTAATLEEKLNKIFEKLGM
modifications: phosphorylated
CheY~P; in the absence of CheZ
  half-life of CheY~P: 15 to 20 s
CheZ; in vivo, autophosphatase plus CheZ
  in vivo half-life of CheY~P: less than a second

B4: T87C CheY~P: phosphorylated T87C CheY (protein, UniProt P0AE67 2-129, looked up, variant T87C)
Chemotaxis protein CheY: ADKELKFLVVDDFSTMRRIVRNLLKELGFNNVEEAEDGVDALNKLQAGGYGFVISDWNMPNMDGLELLKTIRADGAMSALPVLMVCAEAKKENIIAAAQAGASGYVVKPFTAATLEEKLNKIFEKLGM
modifications: phosphorylated
CheZ
  sensitivity to CheZ-promoted phosphatase activity: the same is true of T87C CheY~P

B5: T87I/Y106W CheY: E. coli CheY double mutant T87I/Y106W (protein, UniProt P0AE67 2-129, looked up, variant T87I Y106W)
Chemotaxis protein CheY: ADKELKFLVVDDFSTMRRIVRNLLKELGFNNVEEAEDGVDALNKLQAGGYGFVISDWNMPNMDGLELLKTIRADGAMSALPVLMVIAEAKKENIIAAAQAGASGWVVKPFTAATLEEKLNKIFEKLGM
CheY~P
  autodephosphorylation rate: ~ 5 fold lower
CheZ
  sensitivity to CheZ: completely resistant to CheZ activity
Flagellar rotation
  generation of clockwise rotation of the flagella: cannot generate clockwise rotation of the flagella

B6: T87I CheY: E. coli CheY mutant T87I (protein, UniProt P0AE67 2-129, looked up, variant T87I)
Chemotaxis protein CheY: ADKELKFLVVDDFSTMRRIVRNLLKELGFNNVEEAEDGVDALNKLQAGGYGFVISDWNMPNMDGLELLKTIRADGAMSALPVLMVIAEAKKENIIAAAQAGASGYVVKPFTAATLEEKLNKIFEKLGM
CheY~P
  autodephosphorylation rate: ~ 5 fold lower
CheZ
  sensitivity to CheZ: completely resistant to CheZ activity
Flagellar rotation
  generation of clockwise rotation of the flagella: cannot generate clockwise rotation of the flagella

B7: Y106W CheY: Substitution of Tyr106 in E. coli CheY with tryptophan (protein, UniProt P0AE67 2-129, looked up, variant Y106W)
Chemotaxis protein CheY: ADKELKFLVVDDFSTMRRIVRNLLKELGFNNVEEAEDGVDALNKLQAGGYGFVISDWNMPNMDGLELLKTIRADGAMSALPVLMVTAEAKKENIIAAAQAGASGWVVKPFTAATLEEKLNKIFEKLGM
Flagellar rotation
  flagellar rotation / swimming phenotype: hyperactive mutant that generates mainly clockwise rotational bias

B8: T87I CheY~P: phosphorylated T87I CheY (protein, UniProt P0AE67 2-129, looked up, variant T87I)
Chemotaxis protein CheY: ADKELKFLVVDDFSTMRRIVRNLLKELGFNNVEEAEDGVDALNKLQAGGYGFVISDWNMPNMDGLELLKTIRADGAMSALPVLMVIAEAKKENIIAAAQAGASGYVVKPFTAATLEEKLNKIFEKLGM
modifications: phosphorylated
CheZ
  sensitivity to CheZ: resistant to CheZ-promoted phosphatase activity

B9: T87I/Y106W CheY~P: phosphorylated T87I/Y106W CheY (protein, UniProt P0AE67 2-129, looked up, variant T87I Y106W)
Chemotaxis protein CheY: ADKELKFLVVDDFSTMRRIVRNLLKELGFNNVEEAEDGVDALNKLQAGGYGFVISDWNMPNMDGLELLKTIRADGAMSALPVLMVIAEAKKENIIAAAQAGASGWVVKPFTAATLEEKLNKIFEKLGM
modifications: phosphorylated
CheZ
  sensitivity to CheZ: resistant to CheZ-promoted phosphatase activity
